# Assay results published in publication PMC8103107 (2021).
# B1: Semaphorin 3A (ligand)
# chain: NYQNGKNNVPRLKLSYKEMLESNNVITFNGLANSSSYHTFLLDEERSRLYVGAKDHIFSFDLVNIKDFQKIVWPVSYTRRDECKWAGKDILKECANFIKVLKAYNQTHLYACGTGAFHPICTYIEIGHHPEDNIFKLENSHFENGRGKSPYDPKLLTASLLIDGELYSGTAADFMGRDFAIFRTLGHHHPIRTEQHDSRWLNDPKFISAHLISESDNPEDDKVYFFFRENAIDGEHSGKATHARIGQICKNDFGGHRSLVNKWTTFLKARLICSVPGPNGIDTHFDELQDVFLMNFKDPKNPVVYGVFTTSSNIFKGSAVCMYSMSDVRRVFLGPYAHRDGPNYQWVPYQGRVPYPRPGTCPSKTFGGFDSTKDLPDDVITFARSHPAMYNPVFPMNNRPIVIKTDVNYQFTQIVVDRVDAEDGQYDVMFIGTDVGTVLKVVSIPKETWYDLEEVLLEEMTVFREPTAISAMELSTKQQQLYIGSTAGVAQLPLHRCDIYGKACAECCLARDPYCAWDGSACSRYFPTAKRRTRRQDIRNGDPLTHCSDLHHDNHHGHSPEERIIYGVENSSTFLECSPKSQRALVYWQFQRRNEERKEEIRVDDHIIRTDQGLLLRSLQQKDSGNYLCHAVEHGFIQTLLKVTLEVIDTEHLEELLHKDDDGDGSKTKEMSNSMTPSQKVWYRDFMQLINHPNLNTMDEFCEQVWKRDRKQRRQRPGHTPGNSNKWKHLQENKKGRNRRTHEFERAPRSV
# B2: vascular endothelial growth factor A (ligand)
# chain: APMAEGGGQNHHEVVKFMDVYQRSYCHPIETLVDIFQEYPDEIEYIFKPSCVPLMRCGGCCNDEGLECVPTEESNITMQIMRIKPHQGQHIGEMSFLQHNKCECRPKKDRARQENPCGPCSERRKHLFVQDPQTCKCSCKNTDSRCKARQLELNERTCRCDKPRR
# modifications: Assumed to be VEGF165, the customary recombinant product, because the isoform is not printed. Mature residues 1-165 equal entry residues 207-395 with the exon 6a region 321-345 replaced by the splice-junction Asn. K321N is this natural splice residue, not an engineered mutation. Disulfide-linked antiparallel homodimer.
# Target: recombinant NRP1-derived trap consisting of the extracellular domain of NRP1 (UniProt O14786 22-856)
# Experiment: SPR
# Chain of recombinant NRP1-derived trap consisting of the extracellular domain of NRP1 (O14786 22-856): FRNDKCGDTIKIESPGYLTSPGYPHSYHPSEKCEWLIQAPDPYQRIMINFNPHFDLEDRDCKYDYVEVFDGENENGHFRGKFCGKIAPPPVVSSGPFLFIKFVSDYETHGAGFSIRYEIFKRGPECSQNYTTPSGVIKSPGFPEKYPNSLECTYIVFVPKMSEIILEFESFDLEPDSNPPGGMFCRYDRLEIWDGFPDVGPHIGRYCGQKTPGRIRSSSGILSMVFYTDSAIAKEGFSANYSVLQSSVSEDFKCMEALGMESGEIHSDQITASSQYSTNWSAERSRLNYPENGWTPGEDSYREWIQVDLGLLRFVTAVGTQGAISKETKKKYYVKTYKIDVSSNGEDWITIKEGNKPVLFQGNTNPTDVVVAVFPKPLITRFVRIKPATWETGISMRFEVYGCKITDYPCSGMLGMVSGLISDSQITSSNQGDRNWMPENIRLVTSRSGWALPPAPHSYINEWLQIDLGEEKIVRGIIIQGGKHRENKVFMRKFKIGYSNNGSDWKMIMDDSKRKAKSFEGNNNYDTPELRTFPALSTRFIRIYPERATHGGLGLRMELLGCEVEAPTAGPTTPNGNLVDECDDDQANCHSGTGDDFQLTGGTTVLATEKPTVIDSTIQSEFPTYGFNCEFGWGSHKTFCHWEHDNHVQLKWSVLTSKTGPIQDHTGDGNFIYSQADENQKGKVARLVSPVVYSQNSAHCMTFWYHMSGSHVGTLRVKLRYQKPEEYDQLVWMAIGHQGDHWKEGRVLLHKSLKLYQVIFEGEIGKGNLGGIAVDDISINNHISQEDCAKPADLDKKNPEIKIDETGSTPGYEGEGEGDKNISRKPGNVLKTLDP
row,Binder,koff [s⁻¹]
1,B1,0.000155
2,B2,0.0012
